Among the data in PMC3021122 are stoichiometry N values, retold here.

For assay [1], the target named is T1, Shigella flexneri Spa15 (residues 1-133), N-terminal His tag, unlabelled (Shigella flexneri), P35530.
T1 chain: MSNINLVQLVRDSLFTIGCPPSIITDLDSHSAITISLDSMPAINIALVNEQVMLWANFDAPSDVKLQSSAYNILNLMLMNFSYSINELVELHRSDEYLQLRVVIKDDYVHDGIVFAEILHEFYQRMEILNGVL
Briefly: SEC; HiLoad 26/60 Superdex 75, 20 mM Tris-HCl (pH 7.5), 150 mM NaCl; Spa15 alone. The following applies: remark: other sources report otherwise. A general note: In gel filtration, larger molecules generally elute earlier.

For assay [2], the target named is T1, Shigella flexneri Spa15 (residues …). Description: multi-angle laser light scattering; co-purified Spa15:IpgB1 complex; data not shown. The following applies: remark: other sources report otherwise.

B1: Shigella flexneri Spa15 (residues 1-133), N-terminal His tag, unlabelled, P35530 1-133 (natural protein)
chain: MSNINLVQLVRDSLFTIGCPPSIITDLDSHSAITISLDSMPAINIALVNEQVMLWANFDAPSDVKLQSSAYNILNLMLMNFSYSINELVELHRSDEYLQLRVVIKDDYVHDGIVFAEILHEFYQRMEILNGVL
As usually defined, the stoichiometry N is the number of molecules, sites or subunits per partner or assembly. B1: the stoichiometry N in assay [1] and in assay [2] was 2 throughout.
